The values below come from article PMC11850223.

Data set [1] concerns the target Hera_1–510_K51Q (ATPase-deficient variant) (Thermus thermophilus). Description: SEC. (In general: SEC sorts molecules by how far they enter the pores of the column.)
Data set [2] concerns the target Hera_1–419_K51Q (ATPase-deficient variant) (Thermus thermophilus). Description: SEC.
For data set [3], the target named is T1, Hera_K51Q (Thermus thermophilus, UniProt O07897 1-510, K51Q).
T1 sequence: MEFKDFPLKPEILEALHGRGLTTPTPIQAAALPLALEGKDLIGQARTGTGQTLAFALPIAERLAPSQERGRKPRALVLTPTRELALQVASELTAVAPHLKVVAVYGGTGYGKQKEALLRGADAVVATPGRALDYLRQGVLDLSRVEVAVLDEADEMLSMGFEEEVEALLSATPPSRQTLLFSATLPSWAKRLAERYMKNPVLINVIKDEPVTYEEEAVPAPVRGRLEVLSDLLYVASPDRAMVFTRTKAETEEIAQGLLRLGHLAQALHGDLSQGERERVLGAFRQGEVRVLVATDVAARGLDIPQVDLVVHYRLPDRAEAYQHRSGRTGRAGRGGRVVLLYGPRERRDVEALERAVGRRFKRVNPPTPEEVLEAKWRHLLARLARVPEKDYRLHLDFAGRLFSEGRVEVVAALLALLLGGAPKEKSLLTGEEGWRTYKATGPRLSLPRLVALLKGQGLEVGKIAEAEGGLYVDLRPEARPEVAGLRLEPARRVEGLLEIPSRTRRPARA
Description: fluorescence anisotropy. A general note: Fluorescence polarisation rises when a labelled molecule tumbles more slowly, as on binding a larger partner.

Data set [4] has as its target T2, Hera/Hera_K51Q heterodimer (Thermus thermophilus, UniProt O07897;O07897 1-510;1-510, K51Q).
T2 sequence 1: T1 sequence with Q51K
T2 sequence 2: T1 sequence
Description: fluorescence anisotropy.

For data set [5], the target named is T3, Hera (Thermus thermophilus, UniProt O07897 1-510).
T3 sequence: T1 sequence with Q51K
Nature of the data set: fluorescence anisotropy.

Data set [6] has as its target T1, Hera_K51Q. Nature of the data set: stopped-flow fluorescence.
Data set [7] concerns the target T2, Hera/Hera_K51Q heterodimer. Description: stopped-flow fluorescence.
In data set [8] the target is T3, Hera. Nature of the data set: stopped-flow fluorescence.
For data set [9], the target named is T4, cis-heterodimer Hera/Hera_208-419 (Thermus thermophilus, UniProt O07897;O07897 1-510;208-419).
T4 sequence 1: T1 sequence with Q51K
T4 sequence 2: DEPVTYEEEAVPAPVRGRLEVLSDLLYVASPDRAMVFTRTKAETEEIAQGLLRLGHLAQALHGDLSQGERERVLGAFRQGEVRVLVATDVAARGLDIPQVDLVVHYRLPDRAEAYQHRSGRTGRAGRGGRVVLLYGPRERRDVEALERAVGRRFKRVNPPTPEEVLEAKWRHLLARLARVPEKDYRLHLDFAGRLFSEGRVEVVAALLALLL
Description: fluorescence anisotropy.

Data set [10] has as its target T5, trans-heterodimer Hera_1-419/Hera_370-510 (Thermus thermophilus, UniProt O07897;O07897 1-419;370-510).
T5 sequence 1: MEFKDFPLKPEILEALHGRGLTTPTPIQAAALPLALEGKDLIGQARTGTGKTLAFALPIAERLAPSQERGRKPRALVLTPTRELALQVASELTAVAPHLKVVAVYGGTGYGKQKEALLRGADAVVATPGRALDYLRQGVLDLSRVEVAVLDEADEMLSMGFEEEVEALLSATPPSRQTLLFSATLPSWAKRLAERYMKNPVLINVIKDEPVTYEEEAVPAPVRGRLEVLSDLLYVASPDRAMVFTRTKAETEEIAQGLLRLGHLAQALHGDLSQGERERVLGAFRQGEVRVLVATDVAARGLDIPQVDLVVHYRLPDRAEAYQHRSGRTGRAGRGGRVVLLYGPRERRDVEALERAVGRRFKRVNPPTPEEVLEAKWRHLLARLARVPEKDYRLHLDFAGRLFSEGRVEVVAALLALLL
T5 sequence 2: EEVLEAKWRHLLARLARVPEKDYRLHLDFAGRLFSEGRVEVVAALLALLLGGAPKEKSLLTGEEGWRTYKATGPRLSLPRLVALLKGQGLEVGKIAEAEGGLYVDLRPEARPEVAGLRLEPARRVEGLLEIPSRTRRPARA
Description: stopped-flow fluorescence.

Data set [11] addresses T6, Hera/Hera_1-419 heterodimer (Thermus thermophilus, UniProt O07897;O07897 1-510;1-419).
T6 sequence 1: T1 sequence with Q51K
T6 sequence 2: T5 sequence 1
Nature of the data set: fluorescence anisotropy.

For data set [12], the target named is T4, cis-heterodimer Hera/Hera_208-419. Nature of the data set: stopped-flow fluorescence.
In data set [13] the target is T5, trans-heterodimer …. Description: fluorescence anisotropy.
In data set [14] the target is T7, Hera_1-419_E115C_E227C/Hera_1-419 heterodimer (Thermus thermophilus, UniProt O07897;O07897 1-419;1-419, E115C;E227C).
T7 sequence 1: T5 sequence 1 with E115C, E227C
T7 sequence 2: T5 sequence 1
Description: single-molecule FRET.

The target in data set [15] is T8, Hera_E115C_E227C (Thermus thermophilus, UniProt O07897 1-510, E115C;E227C).
T8 sequence: T1 sequence with Q51K, E115C, E227C
Description: single-molecule FRET.

Data set [16] addresses T9, Hera/Hera_1-419 heterodimer, dye-labelled in trans (Thermus thermophilus, UniProt O07897;O07897 1-510;1-419, E115C;E227C).
T9 sequence 1: T1 sequence with Q51K
T9 sequence 2: T5 sequence 1 with E115C, E227C
Description: single-molecule FRET.

In data set [17] the target is T10, Hera/Hera_1-419 heterodimer, dye-labelled in cis (Thermus thermophilus, UniProt O07897;O07897 1-510;1-419, E115C;E227C).
T10 sequence 1: T1 sequence with Q51K, E115C, E227C
T10 sequence 2: T5 sequence 1
Nature of the data set: single-molecule FRET.

Residue numbers refer to the chain shown, from its start.

As usually defined, the stoichiometry N is the number of molecules, sites or subunits per partner or assembly. Molecule “Hera_1–510_K51Q (ATPase-deficient variant) (enzyme)” returned a stoichiometry N in [1] of 2.

In [2], “Hera_1–419_K51Q (ATPase-deficient variant) (domain or fragment)” yielded a stoichiometry N of 2.

B1: fl-32mer (structured_RNA)
RNA: GCAGGUCCCAAGGGUUGGGCUGUUCGCCCAUU
For orientation: Kd means the concentration at which binding is half-saturated. A high value points to weaker binding. Turning to B1, the Kd in data set [3] is 170 ± 20 nM; in data set [4], 80 ± 20 nM; in [5] it was 60 ± 10 nM; in [6] it was 1500 ± 700 nM; in [7], 130 ± 70 nM; in data set [8] it was 490 ± 220 nM. Also, the Kd in data set [9] came to 126 ± 9 nM; in data set [10], 7300 ± 1000 nM.

B2: fl-32/9mer (structured_RNA)
RNA 1: B1 RNA
RNA 2: UUGGGACCU
Turning to B2, the equilibrium dissociation constant (Kd) in data set [3] is 2100 ± 400 nM; in [4], 2500 ± 400 nM; in data set [11], 3000 ± 300 nM; in data set [5], 2000 ± 300 nM; in data set [12] it was 1800 ± 800 nM; in data set [8] it was 3000 ± 1000 nM. In addition, the results for the Kd in [9] and in [13] were 1400 ± 500 nM and 16000 ± 6000 nM, respectively.

B3: 32mer (smFRET) (structured_RNA)
RNA: B1 RNA
In the case of B3, the binding result in data set [14], in data set [15], in data set [16] and in data set [17] was “binds” in each case.
